From article PMC9900621, “5-Formyltetrahydrofolate promotes conformational remodeling in a methylenetetrahydrofolate reductase active site and inhibits its activity” (The Journal of Biological Chemistry, 2022) come the findings set out here.

Series [1] deals with T1, methylenetetrahydrofolate reductase (tMTHFR) (Thermus thermophilus, UniProt Q5SLG6, E18Q).
T1 construct: gene TTHA0327; recombinant, uncleavable C-terminal hexa-Histidine tag
T1 sequence (Q5SLG6 1-296 E18Q): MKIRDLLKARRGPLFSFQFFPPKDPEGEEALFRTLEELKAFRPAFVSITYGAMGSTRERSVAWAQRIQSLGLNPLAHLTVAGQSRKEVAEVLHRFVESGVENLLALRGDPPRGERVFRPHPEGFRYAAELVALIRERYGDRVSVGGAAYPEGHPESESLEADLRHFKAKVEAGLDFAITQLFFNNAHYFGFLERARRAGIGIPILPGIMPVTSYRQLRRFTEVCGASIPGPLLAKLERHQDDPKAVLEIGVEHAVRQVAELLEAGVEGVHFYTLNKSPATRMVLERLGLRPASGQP
Briefly: crystal structure ([…] Å, pH […]). The format is binding.

Series [2] concerns the molecule itself. Briefly: crystal structure; tMTHFR cocrystallised with CHO-H4folate, FAD-replete; reservoir 0.1 M sodium acetate pH 4.5, 2.5 M NaCl, 0.2 M lithium sulfate, 1.2% myo-inositol, 4 °C; 1.45 Å.
Series [3] deals with the molecule itself. In words: crystal structure; folate-free tMTHFR Glu18Gln, as purified, with 0.6 mM CH3-H4folate; reservoir 0.1 M Hepes pH 7.8, 1 M LiCl, 20% PEG 6000, 20 °C, hanging drop; 1.90 Å.

Consider `Cc1cc2nc3c(=O)[nH]c(=O)nc-3n(C[C@H](O)[C@H](O)[C@H](O)COP(=O)(O)OP(=O)(O)OC[C@H]3O[C@@H](n4cnc5c(N)ncnc54)[C@H](O)[C@@H]3O)c2cc1C` [FAD], for which the “crystal structure (1.90 Å, pH 7.8)” value in series [1] is on record as “presence of a small-molecule was found in the active site near FAD”.

B1: Thermus thermophilus HB8 methylenetetrahydrofolate reductase (tMTHFR), wild type (enzyme)
chain: MKIRDLLKARRGPLFSFEFFPPKDPEGEEALFRTLEELKAFRPAFVSITYGAMGSTRERSVAWAQRIQSLGLNPLAHLTVAGQSRKEVAEVLHRFVESGVENLLALRGDPPRGERVFRPHPEGFRYAAELVALIRERYGDRVSVGGAAYPEGHPESESLEADLRHFKAKVEAGLDFAITQLFFNNAHYFGFLERARRAGIGIPILPGIMPVTSYRQLRRFTEVCGASIPGPLLAKLERHQDDPKAVLEIGVEHAVRQVAELLEAGVEGVHFYTLNKSPATRMVLERLGLRPASGQP
notes: Uncleavable hexa-histidine tag on the C-terminus; Crystallised FAD-replete, with or without CHO-H4folate; also called tMTHFR^wt; MTHFR^wt; not shown: His6, C-terminal, kept
On to B1, for which the binding result in series [2] was “binds”.

B2: Thermus thermophilus HB8 methylenetetrahydrofolate reductase Glu18Gln mutant (enzyme)
chain: MKIRDLLKARRGPLFSFQFFPPKDPEGEEALFRTLEELKAFRPAFVSITYGAMGSTRERSVAWAQRIQSLGLNPLAHLTVAGQSRKEVAEVLHRFVESGVENLLALRGDPPRGERVFRPHPEGFRYAAELVALIRERYGDRVSVGGAAYPEGHPESESLEADLRHFKAKVEAGLDFAITQLFFNNAHYFGFLERARRAGIGIPILPGIMPVTSYRQLRRFTEVCGASIPGPLLAKLERHQDDPKAVLEIGVEHAVRQVAELLEAGVEGVHFYTLNKSPATRMVLERLGLRPASGQP
notes: methylenetetrahydrofolate reductase of Thermus thermophilus HB8 with Glu18Gln, expressed from pET(tMR^Glu18Gln-H); Uncleavable hexa-histidine tag on the C-terminus; Crystallised as purified, with 0.6 mM CH3-H4folate that could not be assigned in the density; also called tMTHFR^Glu18Gln; MTHFR^Glu18Gln; not shown: His6, C-terminal, kept
Take B2: the binding result in series [3] is recorded as “binds”.
